{"source": "paper PMC10076392", "about": "“Structure of the heterotrimeric membrane protein complex FtsB-FtsL-FtsQ of the bacterial divisome” (Nature Communications, 2023)", "molecular_target": "T1, FtsW-FtsI complex, His-tagged (E. coli strain K12, UniProt P0ABG4 1-414; P0AD68 1-577)", "T1 construct": "FtsW, transglycosylase, E. coli strain K12 (ATCC10798D-5), amplified from the genome with primers W-F and W-R; also called FtsWI; His-tagged FtsWI; source: E. coli C43, co-expressed from pETduet-FtsWI, purified (Ni-NTA, Superdex-200) in DDM", "T1 sequence (looked up) 1": "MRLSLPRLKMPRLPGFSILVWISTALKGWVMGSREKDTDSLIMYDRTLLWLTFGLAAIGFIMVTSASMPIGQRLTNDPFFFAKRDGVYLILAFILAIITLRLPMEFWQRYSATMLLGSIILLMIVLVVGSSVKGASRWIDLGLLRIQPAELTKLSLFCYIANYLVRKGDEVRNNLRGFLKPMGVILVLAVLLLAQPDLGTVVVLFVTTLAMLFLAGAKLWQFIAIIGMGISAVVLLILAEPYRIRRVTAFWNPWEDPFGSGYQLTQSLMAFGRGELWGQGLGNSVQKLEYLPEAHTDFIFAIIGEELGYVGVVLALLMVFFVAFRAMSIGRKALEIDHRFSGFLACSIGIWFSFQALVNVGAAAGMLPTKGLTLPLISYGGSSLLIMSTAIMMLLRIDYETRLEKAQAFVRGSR", "T1 sequence (looked up) 2": "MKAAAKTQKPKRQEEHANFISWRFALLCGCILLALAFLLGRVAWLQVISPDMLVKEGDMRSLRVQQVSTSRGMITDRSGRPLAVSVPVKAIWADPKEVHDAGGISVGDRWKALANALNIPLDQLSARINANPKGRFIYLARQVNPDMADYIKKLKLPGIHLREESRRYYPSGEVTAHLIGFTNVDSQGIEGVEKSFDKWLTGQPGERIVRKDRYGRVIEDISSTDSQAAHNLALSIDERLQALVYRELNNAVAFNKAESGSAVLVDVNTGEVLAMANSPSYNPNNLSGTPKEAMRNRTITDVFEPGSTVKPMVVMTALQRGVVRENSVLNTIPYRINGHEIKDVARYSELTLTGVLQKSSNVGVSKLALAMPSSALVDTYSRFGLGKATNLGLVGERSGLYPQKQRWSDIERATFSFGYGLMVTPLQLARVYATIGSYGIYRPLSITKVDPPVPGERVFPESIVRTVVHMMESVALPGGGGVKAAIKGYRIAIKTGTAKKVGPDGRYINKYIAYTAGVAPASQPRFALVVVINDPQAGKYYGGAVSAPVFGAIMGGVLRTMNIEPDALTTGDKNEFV", "assay": "BLI; His-tagged protein loaded at 50 μg/ml on HIS1K (Anti-Penta-HIS) biosensors; analyte in threefold dilutions 0.016-4 µM; 200 mM NaCl, 20 mM HEPES pH7.5, 0.1% DDM; 240 sec association and dissociation; Octet HTX", "settings": "both partners purified", "data": [{"binder": "PBP1b (aa58-804) (enzyme, E. coli strain K12, UniProt P02919 58-804, looked up, PBP1b, bi-functional peptidoglycan synthase, E. coli strain K12 (ATCC10798D-5), residues 58-804; Analyte in BLI; source: E. coli C43, from pET15b-PBP1b, purified (Ni-NTA, Superdex-200) in DDM) KPRGKRGWLWLLLKLAIVFAVLIAIYGVYLDQKIRSRIDGKVWQLPAAVYGRMVNLEPDMTISKNEMVKLLEATQYRQVSKMTRPGEFTVQANSIEMIRRPFDFPDSKEGQVRARLTFDGDHLATIVNMENNRQFGFFRLDPRLITMISSPNGEQRLFVPRSGFPDLLVDTLLATEDRHFYEHDGISLYSIGRAVLANLTAGRTVQGASTLTQQLVKNLFLSSERSYWRKANEAYMALIMDARYSKDRILELYMNEVYLGQSGDNEIRGFPLASLYYFGRPVEELSLDQQALLVGMVKGASIYNPWRNPKLALERRNLVLRLLQQQQIIDQELYDMLSARPLGVQPRGGVISPQPAFMQLVRQELQAKLGDKVKDLSGVKIFTTFDSVAQDAAEKAAVEGIPALKKQRKLSDLETAIVVVDRFSGEVRAMVGGSEPQFAGYNRAMQARRSIGSLAKPATYLTALSQPKIYRLNTWIADAPIALRQPNGQVWSPQNDDRRYSESGRVMLVDALTRSMNVPTVNLGMALGLPAVTETWIKLGVPKDQLHPVPAMLLGALNLTPIEVAQAFQTIASGGNRAPLSALRSVIAEDGKVLYQSFPQAERAVPAQAAYLTLWTMQQVVQRGTGRQLGAKYPNLHLAGKTGTTNNNVDTWFAGIDGSTVTITWVGRDNNQPTKLYGASGAMSIYQRYLANQTPTPLNLVPPEDIADMGVDYDGNFVCSGGMRILPVWTSDPQSLCQQSEMQQQPS", "values": [{"measurement": "binding result", "value": "binds"}]}]}
